Where no end group is shown, it is not given here. [ ]: non-standard residue; d: D form. The star is where a group is joined. Val(3-OH) = CC(C)(O)[C@H](N)C(=O)O; Tle = CC(C)(C)[C@H](N)C(=O)O; Ac6c = NC1(C(=O)O)CCCCC1; NHCH2tBu = CC(C)(C)CN*; Aib = CC(C)(N)C(=O)O; NHiPr = CC(C)N*; Sar = CNCC(=O)O
Key:
Assay in all cases: cell-based or functional assay
[1] = biological target: T1, human angiotensin 2 type 1 receptor (human, UniProt P30556 1-359)
T1 sequence (looked up): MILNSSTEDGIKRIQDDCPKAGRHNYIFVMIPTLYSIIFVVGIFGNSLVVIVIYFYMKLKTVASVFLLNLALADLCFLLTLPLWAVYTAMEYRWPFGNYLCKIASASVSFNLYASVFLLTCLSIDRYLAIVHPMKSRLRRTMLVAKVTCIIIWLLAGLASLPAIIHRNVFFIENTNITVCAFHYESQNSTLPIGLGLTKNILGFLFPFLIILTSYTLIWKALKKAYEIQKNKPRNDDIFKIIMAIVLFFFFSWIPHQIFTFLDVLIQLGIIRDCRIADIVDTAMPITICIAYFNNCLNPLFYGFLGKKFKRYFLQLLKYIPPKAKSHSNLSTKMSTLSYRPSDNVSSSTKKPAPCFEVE

[2] = biological target: T2, rat angiotensin 2 type 1 receptor (rat, UniProt P25095 1-359)
T2 sequence (looked up): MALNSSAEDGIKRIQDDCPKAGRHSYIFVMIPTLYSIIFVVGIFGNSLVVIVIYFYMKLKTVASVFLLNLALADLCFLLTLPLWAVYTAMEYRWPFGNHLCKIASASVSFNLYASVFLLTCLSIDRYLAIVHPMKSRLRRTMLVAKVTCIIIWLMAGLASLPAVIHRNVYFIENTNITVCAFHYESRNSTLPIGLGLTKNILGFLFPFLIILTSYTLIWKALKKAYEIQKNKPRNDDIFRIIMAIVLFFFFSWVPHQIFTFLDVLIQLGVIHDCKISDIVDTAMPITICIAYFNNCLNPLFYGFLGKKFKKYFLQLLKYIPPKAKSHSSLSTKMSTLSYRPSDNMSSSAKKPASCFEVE

[3] = biological target: T1, human angiotensin 2 type 1 receptor; remark: listed apart in the source
[4] = biological target: T2, rat angiotensin 2 type 1 receptor; remark: listed apart in the source

[Sar]RVY[Ac6c]HPE [SEQ ID NO: 43 (Sar-Arg-Val-Tyr-cyHex-His-Pro-Glu)]
beta-arrestin2 assay EC50 [1]: > 3.2 nM
beta-arrestin2 assay Span [1]: < 101
beta-arrestin2 assay pEC50 [1]: < 8.5
beta-arrestin2 assay EC50 [2]: > 3.2 nM
beta-arrestin2 assay Span [2]: < 105
beta-arrestin2 assay pEC50 [2]: < 8.5

[Sar]RVY[Tle]HPT [SEQ ID NO: 30 (Sar-Arg-Val-Tyr-AA02-His-Pro-Thr)]
beta-arrestin2 assay EC50 [1]: > 3.2 nM
beta-arrestin2 assay Span [1]: < 101
beta-arrestin2 assay pEC50 [1]: < 8.5
beta-arrestin2 assay EC50 [2]: > 3.2 nM
beta-arrestin2 assay Span [2]: < 105
beta-arrestin2 assay pEC50 [2]: < 8.5

[Sar]RVY[Ac6c]HP-NHMe [SEQ ID NO: 49 (Sar-Arg-Val-Tyr-cyHex-His-Pro-NH-methyl)]
beta-arrestin2 assay EC50 [1]: > 3.2 nM
beta-arrestin2 assay Span [1]: < 101
beta-arrestin2 assay pEC50 [1]: < 8.5
beta-arrestin2 assay EC50 [2]: > 3.2 nM
beta-arrestin2 assay Span [2]: < 105
beta-arrestin2 assay pEC50 [2]: < 8.5

[Sar]RVY[Ac6c]HP[Aib] [SEQ ID NO: 35 (Sar-Arg-Val-Tyr-cyHex-His-Pro-AA01)]
beta-arrestin2 assay EC50 [1]: > 3.2 nM
beta-arrestin2 assay Span [1]: < 101
beta-arrestin2 assay pEC50 [1]: < 8.5
beta-arrestin2 assay EC50 [2]: > 3.2 nM
beta-arrestin2 assay Span [2]: < 105
beta-arrestin2 assay pEC50 [2]: < 8.5

[Sar]RVY[Ac6c]HP-NHEt [SEQ ID NO: 48 (Sar-Arg-Val-Tyr-cyHex-His-Pro-NH-ethyl)]
beta-arrestin2 assay EC50 [1]: > 3.2 nM
beta-arrestin2 assay Span [1]: < 101
beta-arrestin2 assay pEC50 [1]: < 8.5
beta-arrestin2 assay EC50 [2]: > 3.2 nM
beta-arrestin2 assay Span [2]: < 105
beta-arrestin2 assay pEC50 [2]: < 8.5

[Sar]RVY[Ac6c]HP [SEQ ID NO: 41 (Sar-Arg-Val-Tyr-cyHex-His-Pro)]
beta-arrestin2 assay EC50 [1]: > 3.2 nM
beta-arrestin2 assay Span [1]: < 101
beta-arrestin2 assay pEC50 [1]: < 8.5
beta-arrestin2 assay EC50 [2]: > 3.2 nM
beta-arrestin2 assay Span [2]: < 105
beta-arrestin2 assay pEC50 [2]: < 8.5

[Sar]RVY[Ac6c]HPC [SEQ ID NO: 34 (Sar-Arg-Val-Tyr-cyHex-His-Pro-Cys)]
beta-arrestin2 assay EC50 [1]: > 3.2 nM
beta-arrestin2 assay Span [1]: < 101
beta-arrestin2 assay pEC50 [1]: < 8.5
beta-arrestin2 assay EC50 [2]: > 3.2 nM
beta-arrestin2 assay Span [2]: < 105
beta-arrestin2 assay pEC50 [2]: < 8.5

[Sar]RVY[Ac6c]HPR [SEQ ID NO: 42 (Sar-Arg-Val-Tyr-cyHex-His-Pro-Arg)]
IP1 G-protein assay EC50 [3]: > 1.3 nM
IP1 G-protein assay Span [3]: < 103
IP1 G-protein assay pEC50 [3]: < 9.2
beta-arrestin2 assay EC50 [1]: > 3.2 nM
beta-arrestin2 assay Span [1]: < 101
beta-arrestin2 assay pEC50 [1]: < 8.5
beta-arrestin2 assay EC50 [2]: > 3.2 nM
beta-arrestin2 assay Span [2]: < 105
beta-arrestin2 assay pEC50 [2]: < 8.5

[Sar]RVY[Ac6c]HP-NHCH2tBu [SEQ ID NO: 47 (Sar-Arg-Val-Tyr-cyHex-His-Pro-NH-neopentyl)]
beta-arrestin2 assay EC50 [1]: > 3.2 nM
beta-arrestin2 assay Span [1]: < 101
beta-arrestin2 assay pEC50 [1]: < 8.5

[Sar]RVYPHPA [SEQ ID NO: 1 (Sar-Arg-Val-Tyr-Pro-His-Pro-Ala)]
IP1 G-protein assay EC50 [3]: > 10000 nM
IP1 G-protein assay pEC50 [3]: > 9.2
IP1 G-protein assay EC50 [4]: > 0.6 nM
IP1 G-protein assay Span [4]: < 104
IP1 G-protein assay pEC50 [4]: < 9.2
beta-arrestin2 assay EC50 [1]: > 3.2 nM
beta-arrestin2 assay Span [1]: < 101
beta-arrestin2 assay pEC50 [1]: < 8.5
beta-arrestin2 assay EC50 [2]: > 3.2 nM
beta-arrestin2 assay Span [2]: < 105
beta-arrestin2 assay pEC50 [2]: < 8.5

[Sar]RVY[Ac6c]HPK [SEQ ID NO: 50 (Sar-Arg-Val-Tyr-cyHex-His-Pro-Lys)]
beta-arrestin2 assay EC50 [1]: > 3.2 nM
beta-arrestin2 assay Span [1]: < 101
beta-arrestin2 assay pEC50 [1]: < 8.5
beta-arrestin2 assay EC50 [2]: > 3.2 nM
beta-arrestin2 assay Span [2]: < 105
beta-arrestin2 assay pEC50 [2]: < 8.5

[Sar]RVY[Ac6c]HPV [SEQ ID NO: 13 (Sar-Arg-Val-Tyr-cyHex-His-Pro-Val)]
IP1 G-protein assay EC50 [3]: > 1.3 nM
IP1 G-protein assay pEC50 [3]: > 9.2
IP1 G-protein assay EC50 [4]: > 0.6 nM
IP1 G-protein assay pEC50 [4]: > 9.2
beta-arrestin2 assay EC50 [2]: > 3.2 nM
beta-arrestin2 assay Span [2]: < 105
beta-arrestin2 assay pEC50 [2]: < 8.5

XRVYXHPA (not fully specified; X1 Sar; X5 NMeIle) [SEQ ID NO: 58 (Sar-Arg-Val-Tyr-NMeIle-His-Pro-Ala)]
IP1 G-protein assay EC50 [4]: > 0.6 nM
IP1 G-protein assay Span [4]: < 104
IP1 G-protein assay pEC50 [4]: < 9.2
beta-arrestin2 assay Span [1]: < 101
beta-arrestin2 assay Span [2]: < 105

[Sar]RVY[Aib]HPV [SEQ ID NO: 33 (Sar-Arg-Val-Tyr-AA01-His-Pro-Val)]
IP1 G-protein assay EC50 [3]: > 1.3 nM
IP1 G-protein assay Span [3]: < 103
IP1 G-protein assay pEC50 [3]: < 9.2
beta-arrestin2 assay EC50 [1]: > 3.2 nM
beta-arrestin2 assay Span [1]: < 101
beta-arrestin2 assay pEC50 [1]: < 8.5
beta-arrestin2 assay EC50 [2]: > 3.2 nM
beta-arrestin2 assay Span [2]: < 105
beta-arrestin2 assay pEC50 [2]: < 8.5

[Sar]RVY[Ac6c]HP[Val(3-OH)] [SEQ ID NO: 31 (Sar-Arg-Val-Tyr-cyHex-His-Pro-AA03)]
beta-arrestin2 assay EC50 [1]: > 3.2 nM
beta-arrestin2 assay Span [1]: < 101
beta-arrestin2 assay pEC50 [1]: < 8.5
beta-arrestin2 assay EC50 [2]: > 3.2 nM
beta-arrestin2 assay Span [2]: < 105
beta-arrestin2 assay pEC50 [2]: < 8.5

[Sar]RVY[Ac6c]HPH [SEQ ID NO: 37 (Sar-Arg-Val-Tyr-cyHex-His-Pro-His)]
IP1 G-protein assay EC50 [4]: > 0.6 nM
IP1 G-protein assay Span [4]: < 104
IP1 G-protein assay pEC50 [4]: < 9.2
beta-arrestin2 assay EC50 [1]: > 3.2 nM
beta-arrestin2 assay Span [1]: < 101
beta-arrestin2 assay pEC50 [1]: < 8.5
beta-arrestin2 assay EC50 [2]: > 3.2 nM
beta-arrestin2 assay Span [2]: < 105
beta-arrestin2 assay pEC50 [2]: < 8.5

[Sar]RVY[Ac6c]HPD [SEQ ID NO: 44 (Sar-Arg-Val-Tyr-cyHex-His-Pro-Asp)]
IP1 G-protein assay EC50 [4]: > 0.6 nM
IP1 G-protein assay Span [4]: < 104
IP1 G-protein assay pEC50 [4]: < 9.2
beta-arrestin2 assay EC50 [1]: > 3.2 nM
beta-arrestin2 assay Span [1]: < 101
beta-arrestin2 assay pEC50 [1]: < 8.5
beta-arrestin2 assay EC50 [2]: > 3.2 nM
beta-arrestin2 assay Span [2]: < 105
beta-arrestin2 assay pEC50 [2]: < 8.5

B1: SEQ ID NO: 52 (Sar-Arg-Val-D-Cys-Ile-His-Cys-D-Ala) (peptide)
peptide: [Sar]RV[dC]IHC[dA]
modifications: not fully specified; printed as Sar-Arg-Val-D-Cys-Ile-His-Cys-D-Ala; cysteine pairing not given here
beta-arrestin2 assay EC50 [1]: > 3.2 nM
beta-arrestin2 assay Span [1]: < 101
beta-arrestin2 assay pEC50 [1]: < 8.5
beta-arrestin2 assay EC50 [2]: > 3.2 nM
beta-arrestin2 assay Span [2]: < 105
beta-arrestin2 assay pEC50 [2]: < 8.5

[Sar]RVYXHPT (not fully specified (residue 5); printed as Sar-Arg-Val-Tyr-AA01-His-Pro-Thr) [SEQ ID NO: 40 (Sar-Arg-Val-Tyr-AA01-His-Pro-Thr)]
beta-arrestin2 assay EC50 [1]: > 3.2 nM
beta-arrestin2 assay Span [1]: < 101
beta-arrestin2 assay pEC50 [1]: < 8.5
beta-arrestin2 assay EC50 [2]: > 3.2 nM
beta-arrestin2 assay Span [2]: < 105
beta-arrestin2 assay pEC50 [2]: < 8.5

[Sar]RVY[Ac6c]HPG [SEQ ID NO: 32 (Sar-Arg-Val-Tyr-cyHex-His-Pro-Gly)]
beta-arrestin2 assay EC50 [1]: > 3.2 nM
beta-arrestin2 assay Span [1]: < 101
beta-arrestin2 assay pEC50 [1]: < 8.5
beta-arrestin2 assay EC50 [2]: > 3.2 nM
beta-arrestin2 assay Span [2]: < 105
beta-arrestin2 assay pEC50 [2]: < 8.5

[Sar]RVY[Ac6c]HP-NHiPr [SEQ ID NO: 46 (Sar-Arg-Val-Tyr-cyHex-His-Pro-NH-i-Pr)]
IP1 G-protein assay EC50 [3]: > 1.3 nM
IP1 G-protein assay Span [3]: < 103
IP1 G-protein assay pEC50 [3]: < 9.2
beta-arrestin2 assay EC50 [1]: > 3.2 nM
beta-arrestin2 assay Span [1]: < 101
beta-arrestin2 assay pEC50 [1]: < 8.5
beta-arrestin2 assay EC50 [2]: > 3.2 nM
beta-arrestin2 assay Span [2]: < 105
beta-arrestin2 assay pEC50 [2]: < 8.5

[Sar]RVY[Ac6c]HPN [SEQ ID NO: 36 (Sar-Arg-Val-Tyr-cyHex-His-Pro-Asn)]
beta-arrestin2 assay EC50 [1]: > 3.2 nM
beta-arrestin2 assay Span [1]: < 101
beta-arrestin2 assay pEC50 [1]: < 8.5
beta-arrestin2 assay EC50 [2]: > 3.2 nM
beta-arrestin2 assay Span [2]: < 105
beta-arrestin2 assay pEC50 [2]: < 8.5

[Sar]KVY[Ac6c]HPA [SEQ ID NO: 51 (Sar-Lys-Val-Tyr-cyHex-His-Pro-Ala)]
IP1 G-protein assay EC50 [3]: > 1.3 nM
IP1 G-protein assay Span [3]: < 103
IP1 G-protein assay pEC50 [3]: < 9.2
beta-arrestin2 assay EC50 [1]: > 3.2 nM
beta-arrestin2 assay Span [1]: < 101
beta-arrestin2 assay pEC50 [1]: < 8.5
beta-arrestin2 assay EC50 [2]: > 3.2 nM
beta-arrestin2 assay Span [2]: < 105
beta-arrestin2 assay pEC50 [2]: < 8.5

[Sar]RVY[Tle]HPV [SEQ ID NO: 29 (Sar-Arg-Val-Tyr-AA02-His-Pro-Val)]
beta-arrestin2 assay EC50 [1]: > 3.2 nM
beta-arrestin2 assay Span [1]: < 101
beta-arrestin2 assay pEC50 [1]: < 8.5
beta-arrestin2 assay EC50 [2]: > 3.2 nM
beta-arrestin2 assay Span [2]: < 105
beta-arrestin2 assay pEC50 [2]: < 8.5
